We go through 47 sequences from the NTF2 design screens of Basanta et al. (2020).

The nature of this data set: protease stability score; higher = more stable; yeast display proteolysis, trypsin and chymotrypsin.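 Further: relative to predicted unfolded state with 0 unfolded-like and 1 meaning tenfold more protease.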
The sequence “SEHEEIMHKALLFLIYVLLTGDEEILHELLDPNARLDVNGREKHGREDWVQLKRELIHKIKNVRIELHDMKVIGDFLISDQRHDYDGREYKMDVFAFKVDGQWKVREEKLD” showed a protease stability score of 1.44. For the sequence “SEHEEKSKEASEQMFQILRTGDWHKWLELLDPHYQLEIGDKRFHGMEISSELLRHLLEELGVERVEVYVKHQETQGDKVINDGSVDINGRELRMILYARKVDGRWVLKSMKVK”, the protease stability score came out at 1.39. The figure for “SEHEELLERIAEFVMKSWITGNEELDERLADPDARSIVNGKHLHGRELHSEFLRKLLEQLRIHHIHMTDRRVFDGRAIEHSVVHGEIDGVKVTVEVHIRVVVINGRLKSLRIEIR” is 0.149; for “SEHEEMEQDAREIMERVFHTGDETTMRKLADPHVKFHIGDKLHVGRELFDNFVRYVLEKFKNIRVETEEVRDVNGVVIQDLDENYNGQRYKVRWVMVKINGKWTIERVEIR” it is 0.599. “SEHEERMRRYIEIFIHNLITGDEHMINRMADPSTIVIINGVRLWGREEFSKWVRRERERIDHIEMRIEHLDVQGDKATVDVRVEEHVGDKSEERSLIIRLIVVNGRSHSMHFEVR”: the protease stability score stood at 1.59. In the case of “SEHEEVASRVTTEIIHNLLTGDWQRTTELMDPNTKLDVNGQHHHGWELYHKVLREWHEELRVHDMKEHDLKVIDGVAFSNMRVDIEINGVRFETEIRIIVVVVNGRIKSISFESK” it was 0.771; in that of “SEHEEYNRELSELFWHWFQTGDEEMMNKNVDPDARMIVGEKTHHGWEEFVKLLRETLKRLGADHIILRRMNVQGNKSHIDGEIRINGVTIKTELDLVVVDGRISSLRLSFH”, 1.05. “SEHEHELIEFAELFREIIATGDEDALRRLLDPNTQWDFNGVDLHGRDEVIKELRRWRDRFPNMRVHIRRIRLEVINGRLQLDLHTFVEFDGVEFVQHIHLHIEKVNGRWSVHHIEVRYR” had a protease stability score of 1.1. In the case of “SEHEHIAEKMSELLREIVETGDFEQLERLADPHVKLNVDGRNFHGMERFRELKERIRREFGVDHIHVEVERVEVIDGVVINHTKLIIEQGDKRRESRTTLIINKVNGQWRLDSVRVE” it was 0.488; in that of “SEHEHMIQVALELWLHTLHTGDEHKEERLHDPHARLRIGDKELHGREDVIRWMRKVKNVTINRVEVRRINFQGDKAILLVRIDGEFDGRRIDTEVIIIVVKVDGRWLFESMEID”, 1.31. In the case of “SEHEHSSRIAIELLLKTLKTGDERKIEENFDPNVRLIFEGRHIVGREEVFQHIHHLAHELRIEDMKIRRVEHVNGRIHIDLHVVIEINGQRIETDSHMVILKIDGKWKIELLEWR” it was 1.61. The figure for “SEHEKFSEKYFQIWVRAVRTGDEDTLRELIDPDDRLDVNGQNFHGWEQVNEHLLHFIRKIKNVRIEVHLEHHEVQGDKIHLDMTLHLNVDGRETRHKTEIIARKIDGRWVFTEFRIK” is 2.26; for “SEHEKHNRDVVRIVLHALLTGDEELFEENADPNVRTEIDVNGKEIQIHGRSKWVEWLRREIERFDHVRIDLKRIDVQGDKLHTDGHLRLKQGDKEITTDVRLHIVVVDGRIDSMEMSVH” it is 2.1. As to “SEHEKIIVEWTRLLQEILRTGDEEMWLKLLDPHAKTHINGKDIHGMEEAARFWKELHKHMRIEDEEVRETRVVGNKAIYHMERKVNINGRTHEQEVELRVIIVDGQIKKISIHIH”, the protease stability score is 0.439. Sequence “SEHEKMMREIAKEYIDWFLTGDEELERNLADPDTRLNVDGREHHGMEEVIDLWRRIGLSNVDLRIHHWRAYGEFVYFDGEYTVGDKKRKVHFEYFVVNGRLKEVRVEIR” yielded a protease stability score of 1.51. The figure for “SEHEKVYHDAIKIYQDNLKTGDEKRMEKFFDPNVIIHIGDKELVGRELVRHQATELARRVDHVEVHIKHVDVQGEKIRINGEIEIEINGRTIRFETHLVILKVNGRWIIHSEFIL” is 1.04; for “SEHELIAHEIVERWVHDVNTGDWENLHRLFDPNTKIDFNGVHLHGRRSLEEWIHEHLRRADHFEVRIKDIRVQGEKSVANTHVNVNINGQEYRRDTSLILIIVDGKVKTMTIRVH” it is 1.5; for “SEHEREAREHMEIFRRAFRTGDEQFLTELADPNVRVDVNGVELHGRENFLRVMRHIRFKDIRIKRSREINGVLFIDVRERGIVNGQETTFESEIIILKVDGRWIIEELIIL” it is 1.39.

“SEHETEVMRLAEITVKSFLTGDEDTMHHLLDPHVRSDVNGRHHIGRERWLKVVEDMLRHLRLTTIEIHHVDAINGRLHTDTRVNVHINGQEVILETELIIVIVDGVVKEVHWVVK” came in with a protease stability score of 0.994. The figure for “SEHFEIALEILKLFLRSRHTGDWKTMEEMADPDVRLEVGEYTNHGWEEILRVLEELRFEIHFIHDHDVKFQGDKLHLDGHVDGVRRVDGQEVRIVSHIEIISVVVNGRAKSYSEHWV” is 0.631. Regarding “SEHHEEATEATKHFVHLMRTGDFDRLLELADPHVRVRINGKNLIGREDLDKLWKELGLTNVDVRIDDFSHQGDKVEIHTREHFNGRTVDVIVILEKINGQWVIKRREQR”, the protease stability score amounted to 0.4. The figure for “SEHHEKLLHLTTLFLEAFWTGDEDIFHHLLDPNVKSIFNGREIHGRHIFSDLRRQIRVERTHVEHEQIVDGRVFMHGKSDGHINGRTHKSHLEIEIVVFDGKVERIKIELR” is 0.499; for “SEHHEVTEKLTRIILHQWDTGNERSLRKMMDPNARVEIEIGDKSWEYHGRENFRHAVERFDYLDNKEHKDERIVGDFSIIDGRVDGVQGDKRYDTNVEIIIIIVNGRIRAIRFIVR” it is 1.26; for “SEHHKEAREMVEELIRLYETGDEDTLRTLADPHVRQDINGVDYVGREFAADLLIDEMREIRSHIHVHRIHTYNGQVHVDGHLEFIIGDKSYRLRVHMVVEKVDGKWLHRSEHYK” it is -0.116. The figure for “SEHHKLLEDFLHLMQEALHTGNEDFIAELADPNVRINWNGKETHGRENLRRMLHEWRERWGIDRIEFHMKSISVQGDKIDLEMQVHINGRHETMHVRITVINGRLKDVRYELR” is 1.66. Take “SEHHKLLVEIAHLWIRNVLTGDEDRLKEMADPNVRIHINGVDIHGMEDFVRHVHERLKEIWIRIEIKRMVPYDGRAEVDGTMHVIVNGQKLSRRVHYDIIIVDGVLQEQHVHVE”: the protease stability score was 1.64. The figure for “SEHKEEIIQLAEEIFRKIVTGDWERFWELADPHVRFDVGDKTRHGREKVIEYINRFMKELRFERFHIDDIRVIDGVVVIHTKLRFRVGDFQLHHHTRHEIMMVDGRIQFLRIEWE” is 0.096.

With “SEHKEEVHEMIKLFLEALRTGDEDWLKTMIDPNDRIRVGDKELHGREEFDKIVHFFKNARIHLHHYSVINGRVTIHMILHFNGKTFEIHIYAEKVDGRWRHRESEMHER”, the protease stability score came to 1.38. On to “SEHKELVEHITKLSWELLKTGDEEILLHLADPDMKVEVGDKEMHGREEWARFLIETLRRVKNLRVDLHRVHIQGEKAHVDGTIFIDGVEFTDQLNFVVINGRIKHINIIDR”, for which the protease stability score amounted to 1.46. On to “SEHLEIAMRVIREDLIKSSTGDWRRLEDYLDPHVKIQVGNKEIVGWEEVEKNMEHLRIEFRDYRIKDARNIDGKINVHGEIVEIIRVGNKTYQMRTEVDFIATKVDGQWTIHSIRFN”, for which the protease stability score amounted to 1.15.

On to “SEHQEVFEEFVRRWIEDMETGNEEQLRHLADPDARIVINGREHHGREWVSTFLMKRIRHLGVKHVEIDDKKQIGEKIHVRVTIHFDGVTVDTELIALKINGRWFMHEVIFR”, for which the protease stability score was 1.5. The sequence “SEHSHFLVELALIFWKALVTGDEERLDRLIDPNTRLEIGDKEEIGRENIIRKLDHIRIKTEEITVRDYRTQGDKFHMIGHVDLHFDFNGVRHRFTTEVRVDLTTVDGKIHSHHIKYR” yielded a protease stability score of 0.145.

As for “SEHTHAAVRIMELESEYLTTGDWESVRRLLDPHVQVEIGDFHAHGWEERVRRMREIRVKVQDLRIRTIDFYNGRVELHFELHVRIEFNGRDVRQDTEIVLIVLKVNGKWLVDKIRFE”, the protease stability score came out at 0.901. The figure for “SEIDEEIEKHFELYTHALHTGDEHVLRRLLDPDARLTVGDKTFHGREQVVKELSREIHELRVRDMEIKDEKLVGDKLHQDTRLQFKFNGKEHEIITNFIWLKVNGQWVIREVRYD” is 1.25; for “SEIDEFSEKAFRLLLETLQTGDWRLTSELVDPNVRVHFEGHEHVGMEEVSKVVRHWRVKRIELKHLEVIGEKMHMILHQDIEVNGQRVRTDMIVTADKIDGVWLLTEVRIK” it is 1.59. The sequence “SEIDEIAHKMAKEWTKDFVTGDEDHWKRLADPNTRVHINGVELHGRETSSEFKEKLRRHMGVDHMELRVRHVDLFNGRVHMETELIYRVGDKEIRTETHVDLDIVNGRIKEVRYEIR” had a protease stability score of 0.734.

For “SEIDEWLHRWFNLWIDAFITGDEDFLKELADPDVRLVDGDFEKVGREEFTRSMRQYLRHARVDHFRIKHQHMQGDKIHVHGHIEMTINGKHIRHEIRLRFVVINGRFHSMHIEID”, the protease stability score is 0.975. “SEIDHILKLLAELWIRLWLTGDEEIIEELADPNVRLDINGKDAHGWERLSEVLRLEIKEMRIDHHRLREIRVQGNKSEVDGRLRGTFNGKHREVDVHIEIEVVNGRFKRIRIEFR” had a protease stability score of 1.42. In the case of “SEIDHIVKELIRRESEYLKTGDEDAFHDLFDPSTRIEINGQEFHGREWHKHLLKELRFHSIELHDWRIVGDKVEMDTRMLTEVGDKRDYRRTTMHATKFDGKWYLTRVIIE” it was 1.24.

Consider “SEIDKESEEVARRLLHMEYTGDEEKMIKLLDPHVRLDINGQLFVGREEAERALRQYWHRVDHIHSIEIHDYKTQGDWFHLDIRVDGEIDGQRRDFRVIVHTRIVNGKVKEMHLKFH”, for which the protease stability score stood at 1.65. The figure for “SEIDKHAEDVMRIWEHVHRTGNEDTLSHLLDPDVKVEIHYDGVDIRLHGMELVSEFLTRFAHHARNKDFKEKDLELQGNKIIRTGIVVFDYDGVEIRRWTHEEIRVVNGRFTHIKKEFH” is 0.442; for “SEIDREAEELVHLLAEFVETGNEERWLELLDPHVRLDFDGVISHGREHYIEFWRRLKENLGIDKVSFRVRRRKTQGEKAHSDMETDINGQKYHMEVLVVVINGVVKHSEFHYN” it is 1.07; for “SEIDREHHELLTLLVHLWLTGDWKTFKKYFDPNVRLHQGDFDDHGWEALEETERKHGIEIKDLELHEFHVQGEKIIINLHVVIRQGDKTYRKDMRITYVVVNGRVTSIRMEVR” it is 0.877. In the case of “SEIDRLSEELARLFLELVITGDFKTLSHLADPTVKSDINGVDLHGREELYRWVEEFYNELRVSWVLDSIEVQGEKAYVKGKLESRVDGQRHTDQYEIILIIVNGRFKEIIVKRR” it was 1.5; in that of “SEIEEDSRKASRDLMNSIRTGNEEVLKEMADPHVRTDINGREIHGMEKWLNELSEFLEKFKGAKIDLSLKDIRIQGEYIHIHMHVHLRFNGKSDNKDIEIIALKVDGRWLIQEWRIR”, 0.834. In the case of “SEIEEEAKHVSELMVRWMETGDEKEIYKFADPHVRLEYNGREFHGRESILKHRREIIEKWGVTNIRVSPETFDVINGVVHVELILKVNGRNVIVHILIRKIDGRWRIDSESFI” it was 1.5.

Regarding “SEIEEEIEQAYKLTKHHWETGDEKDIRRNADPHVRVYFNGREYHGWEVLHEVLRLMGAKHVEIHRYEIQGEYVHIDSEVRQGDKRFRMHVESYKVNGRWFIETVFIK”, the protease stability score is 0.749.
